According to US12679878B2, “CRF2 receptor agonists and their use in therapy” (SANOFI, priority 2020, dated 2026):
Starred links: 1 amine or outer side, 2 acyl side, 3 side chain; linkers in the order of their positions; H or OH if unused. Non-standard residues stand in square brackets, D forms with d. Groups on a side chain read outwards from the residue. No end group written: not given here. *: point of attachment. C18 diacid = O=C(O)CCCCCCCCCCCCCCCCC(=O)*; γGlu = O=C(O)[C@H](CCC(=O)[*:2])N[*:1]; Palmitoyl = CCCCCCCCCCCCCCCC(=O)*; AEEA = NCCOCCOCC(=O)O; Aib = CC(C)(N)C(=O)O

biological target: human corticotropin-releasing factor 2α (CRF2 α receptor) (human), Q13324; assay: cell-based or functional assay
Sequence (Q13324 20-411): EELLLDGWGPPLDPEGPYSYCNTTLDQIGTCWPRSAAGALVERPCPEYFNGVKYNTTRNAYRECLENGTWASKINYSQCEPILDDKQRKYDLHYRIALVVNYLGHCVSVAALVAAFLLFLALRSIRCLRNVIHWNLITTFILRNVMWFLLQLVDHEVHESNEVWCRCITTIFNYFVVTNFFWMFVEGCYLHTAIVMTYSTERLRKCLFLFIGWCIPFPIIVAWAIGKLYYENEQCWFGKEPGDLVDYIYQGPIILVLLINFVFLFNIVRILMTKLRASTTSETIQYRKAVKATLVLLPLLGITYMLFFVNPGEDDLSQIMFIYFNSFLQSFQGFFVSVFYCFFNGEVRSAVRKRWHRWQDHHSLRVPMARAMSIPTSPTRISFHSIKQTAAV

EC50 [nM], 0% HSA [nM]	Binder
0.91	IVLSLDVPIKLK([AEEA-AEEA-γGlu-C18 diacid])QILLEQERQKKQREQAETN[Aib]QILAQV-NH2 (N-terminus assumed; SMILES CC[C@H](C)[C@H](N)C(=O)N[C@H](C(=O)N[C@@H](CC(C)C)C(=O)N[C@@H](CO)C(=O)N[C@@H](CC(C)C)C(=O)N[C@@H](CC(=O)O)C(=O)N[C@H](C(=O)N1CCC[C@H]1C(=O)N[C@H](C(=O)N[C@@H](CCCCN)C(=O)N[C@@H](CC(C)C)C(=O)N[C@@H](CCCCNC(=O)COCCOCCNC(=O)COCCOCCNC(=O)CC[C@H](NC(=O)CCCCCCCCCCCCCCCCC(=O)O)C(=O)O)C(=O)N[C@@H](CCC(N)=O)C(=O)N[C@H](C(=O)N[C@@H](CC(C)C)C(=O)N[C@@H](CC(C)C)C(=O)N[C@@H](CCC(=O)O)C(=O)N[C@@H](CCC(N)=O)C(=O)N[C@@H](CCC(=O)O)C(=O)N[C@@H](CCCNC(=N)N)C(=O)N[C@@H](CCC(N)=O)C(=O)N[C@@H](CCCCN)C(=O)N[C@@H](CCCCN)C(=O)N[C@@H](CCC(N)=O)C(=O)N[C@@H](CCCNC(=N)N)C(=O)N[C@@H](CCC(=O)O)C(=O)N[C@@H](CCC(N)=O)C(=O)N[C@@H](C)C(=O)N[C@@H](CCC(=O)O)C(=O)N[C@H](C(=O)N[C@@H](CC(N)=O)C(=O)NC(C)(C)C(=O)N[C@@H](CCC(N)=O)C(=O)N[C@H](C(=O)N[C@@H](CC(C)C)C(=O)N[C@@H](C)C(=O)N[C@@H](CCC(N)=O)C(=O)N[C@H](C(N)=O)C(C)C)[C@@H](C)CC)[C@@H](C)O)[C@@H](C)CC)[C@@H](C)CC)C(C)C)C(C)C) [SEQ ID NO: 70]
0.57	IVLSLDVPIKLK([AEEA-AEEA-γGlu-C18 diacid])QILLEQEKQKKQREQAETNKQILAQV-NH2 (N-terminus assumed; SMILES CC[C@H](C)[C@H](N)C(=O)N[C@H](C(=O)N[C@@H](CC(C)C)C(=O)N[C@@H](CO)C(=O)N[C@@H](CC(C)C)C(=O)N[C@@H](CC(=O)O)C(=O)N[C@H](C(=O)N1CCC[C@H]1C(=O)N[C@H](C(=O)N[C@@H](CCCCN)C(=O)N[C@@H](CC(C)C)C(=O)N[C@@H](CCCCNC(=O)COCCOCCNC(=O)COCCOCCNC(=O)CC[C@H](NC(=O)CCCCCCCCCCCCCCCCC(=O)O)C(=O)O)C(=O)N[C@@H](CCC(N)=O)C(=O)N[C@H](C(=O)N[C@@H](CC(C)C)C(=O)N[C@@H](CC(C)C)C(=O)N[C@@H](CCC(=O)O)C(=O)N[C@@H](CCC(N)=O)C(=O)N[C@@H](CCC(=O)O)C(=O)N[C@@H](CCCCN)C(=O)N[C@@H](CCC(N)=O)C(=O)N[C@@H](CCCCN)C(=O)N[C@@H](CCCCN)C(=O)N[C@@H](CCC(N)=O)C(=O)N[C@@H](CCCNC(=N)N)C(=O)N[C@@H](CCC(=O)O)C(=O)N[C@@H](CCC(N)=O)C(=O)N[C@@H](C)C(=O)N[C@@H](CCC(=O)O)C(=O)N[C@H](C(=O)N[C@@H](CC(N)=O)C(=O)N[C@@H](CCCCN)C(=O)N[C@@H](CCC(N)=O)C(=O)N[C@H](C(=O)N[C@@H](CC(C)C)C(=O)N[C@@H](C)C(=O)N[C@@H](CCC(N)=O)C(=O)N[C@H](C(N)=O)C(C)C)[C@@H](C)CC)[C@@H](C)O)[C@@H](C)CC)[C@@H](C)CC)C(C)C)C(C)C) [SEQ ID NO: 67]
25.4	FTLSLDVPIGLKQILLKQQKQKKERQKAETNVQLLERV-NH2 (not fully specified (residue 12); printed as FTLSLDVPIGLK*QILLKQQKQKKERQKAETNVQLLERV-NH2) [SEQ ID NO: 66]
0.04	IVLSLDVPIGLK([γGlu-Palmitoyl])QKLLKQEKQEKEKQQAETNAKILAQV-NH2 (N-terminus assumed; SMILES CCCCCCCCCCCCCCCC(=O)N[C@@H](CCC(=O)NCCCC[C@H](NC(=O)[C@H](CC(C)C)NC(=O)CNC(=O)[C@@H](NC(=O)[C@@H]1CCCN1C(=O)[C@@H](NC(=O)[C@H](CC(=O)O)NC(=O)[C@H](CC(C)C)NC(=O)[C@H](CO)NC(=O)[C@H](CC(C)C)NC(=O)[C@@H](NC(=O)[C@@H](N)[C@@H](C)CC)C(C)C)C(C)C)[C@@H](C)CC)C(=O)N[C@@H](CCC(N)=O)C(=O)N[C@@H](CCCCN)C(=O)N[C@@H](CC(C)C)C(=O)N[C@@H](CC(C)C)C(=O)N[C@@H](CCCCN)C(=O)N[C@@H](CCC(N)=O)C(=O)N[C@@H](CCC(=O)O)C(=O)N[C@@H](CCCCN)C(=O)N[C@@H](CCC(N)=O)C(=O)N[C@@H](CCC(=O)O)C(=O)N[C@@H](CCCCN)C(=O)N[C@@H](CCC(=O)O)C(=O)N[C@@H](CCCCN)C(=O)N[C@@H](CCC(N)=O)C(=O)N[C@@H](CCC(N)=O)C(=O)N[C@@H](C)C(=O)N[C@@H](CCC(=O)O)C(=O)N[C@H](C(=O)N[C@@H](CC(N)=O)C(=O)N[C@@H](C)C(=O)N[C@@H](CCCCN)C(=O)N[C@H](C(=O)N[C@@H](CC(C)C)C(=O)N[C@@H](C)C(=O)N[C@@H](CCC(N)=O)C(=O)N[C@H](C(N)=O)C(C)C)[C@@H](C)CC)[C@@H](C)O)C(=O)O) [SEQ ID NO: 4]
0.61	IVLSLDVPIKLK([AEEA-AEEA-γGlu-C18 diacid])K[Aib]LLEQERQKKQREQAETNKQILAQV-NH2 (N-terminus assumed; SMILES CC[C@H](C)[C@H](N)C(=O)N[C@H](C(=O)N[C@@H](CC(C)C)C(=O)N[C@@H](CO)C(=O)N[C@@H](CC(C)C)C(=O)N[C@@H](CC(=O)O)C(=O)N[C@H](C(=O)N1CCC[C@H]1C(=O)N[C@H](C(=O)N[C@@H](CCCCN)C(=O)N[C@@H](CC(C)C)C(=O)N[C@@H](CCCCNC(=O)COCCOCCNC(=O)COCCOCCNC(=O)CC[C@H](NC(=O)CCCCCCCCCCCCCCCCC(=O)O)C(=O)O)C(=O)N[C@@H](CCCCN)C(=O)NC(C)(C)C(=O)N[C@@H](CC(C)C)C(=O)N[C@@H](CC(C)C)C(=O)N[C@@H](CCC(=O)O)C(=O)N[C@@H](CCC(N)=O)C(=O)N[C@@H](CCC(=O)O)C(=O)N[C@@H](CCCNC(=N)N)C(=O)N[C@@H](CCC(N)=O)C(=O)N[C@@H](CCCCN)C(=O)N[C@@H](CCCCN)C(=O)N[C@@H](CCC(N)=O)C(=O)N[C@@H](CCCNC(=N)N)C(=O)N[C@@H](CCC(=O)O)C(=O)N[C@@H](CCC(N)=O)C(=O)N[C@@H](C)C(=O)N[C@@H](CCC(=O)O)C(=O)N[C@H](C(=O)N[C@@H](CC(N)=O)C(=O)N[C@@H](CCCCN)C(=O)N[C@@H](CCC(N)=O)C(=O)N[C@H](C(=O)N[C@@H](CC(C)C)C(=O)N[C@@H](C)C(=O)N[C@@H](CCC(N)=O)C(=O)N[C@H](C(N)=O)C(C)C)[C@@H](C)CC)[C@@H](C)O)[C@@H](C)CC)C(C)C)C(C)C) [SEQ ID NO: 69]
0.2	IVLSLDVPIKLK([AEEA-AEEA-γGlu-C18 diacid])QILLEQERQKKQREQAETNKQILAQV-NH2 (N-terminus assumed; SMILES CC[C@H](C)[C@H](N)C(=O)N[C@H](C(=O)N[C@@H](CC(C)C)C(=O)N[C@@H](CO)C(=O)N[C@@H](CC(C)C)C(=O)N[C@@H](CC(=O)O)C(=O)N[C@H](C(=O)N1CCC[C@H]1C(=O)N[C@H](C(=O)N[C@@H](CCCCN)C(=O)N[C@@H](CC(C)C)C(=O)N[C@@H](CCCCNC(=O)COCCOCCNC(=O)COCCOCCNC(=O)CC[C@H](NC(=O)CCCCCCCCCCCCCCCCC(=O)O)C(=O)O)C(=O)N[C@@H](CCC(N)=O)C(=O)N[C@H](C(=O)N[C@@H](CC(C)C)C(=O)N[C@@H](CC(C)C)C(=O)N[C@@H](CCC(=O)O)C(=O)N[C@@H](CCC(N)=O)C(=O)N[C@@H](CCC(=O)O)C(=O)N[C@@H](CCCNC(=N)N)C(=O)N[C@@H](CCC(N)=O)C(=O)N[C@@H](CCCCN)C(=O)N[C@@H](CCCCN)C(=O)N[C@@H](CCC(N)=O)C(=O)N[C@@H](CCCNC(=N)N)C(=O)N[C@@H](CCC(=O)O)C(=O)N[C@@H](CCC(N)=O)C(=O)N[C@@H](C)C(=O)N[C@@H](CCC(=O)O)C(=O)N[C@H](C(=O)N[C@@H](CC(N)=O)C(=O)N[C@@H](CCCCN)C(=O)N[C@@H](CCC(N)=O)C(=O)N[C@H](C(=O)N[C@@H](CC(C)C)C(=O)N[C@@H](C)C(=O)N[C@@H](CCC(N)=O)C(=O)N[C@H](C(N)=O)C(C)C)[C@@H](C)CC)[C@@H](C)O)[C@@H](C)CC)[C@@H](C)CC)C(C)C)C(C)C) [SEQ ID NO: 68]
3.15	IVLSLDVPIKLK([AEEA-AEEA-γGlu-C18 diacid])K[Aib]LLEQERQKKQREQAETN[Aib]QILAQV-NH2 (N-terminus assumed; SMILES CC[C@H](C)[C@H](N)C(=O)N[C@H](C(=O)N[C@@H](CC(C)C)C(=O)N[C@@H](CO)C(=O)N[C@@H](CC(C)C)C(=O)N[C@@H](CC(=O)O)C(=O)N[C@H](C(=O)N1CCC[C@H]1C(=O)N[C@H](C(=O)N[C@@H](CCCCN)C(=O)N[C@@H](CC(C)C)C(=O)N[C@@H](CCCCNC(=O)COCCOCCNC(=O)COCCOCCNC(=O)CC[C@H](NC(=O)CCCCCCCCCCCCCCCCC(=O)O)C(=O)O)C(=O)N[C@@H](CCCCN)C(=O)NC(C)(C)C(=O)N[C@@H](CC(C)C)C(=O)N[C@@H](CC(C)C)C(=O)N[C@@H](CCC(=O)O)C(=O)N[C@@H](CCC(N)=O)C(=O)N[C@@H](CCC(=O)O)C(=O)N[C@@H](CCCNC(=N)N)C(=O)N[C@@H](CCC(N)=O)C(=O)N[C@@H](CCCCN)C(=O)N[C@@H](CCCCN)C(=O)N[C@@H](CCC(N)=O)C(=O)N[C@@H](CCCNC(=N)N)C(=O)N[C@@H](CCC(=O)O)C(=O)N[C@@H](CCC(N)=O)C(=O)N[C@@H](C)C(=O)N[C@@H](CCC(=O)O)C(=O)N[C@H](C(=O)N[C@@H](CC(N)=O)C(=O)NC(C)(C)C(=O)N[C@@H](CCC(N)=O)C(=O)N[C@H](C(=O)N[C@@H](CC(C)C)C(=O)N[C@@H](C)C(=O)N[C@@H](CCC(N)=O)C(=O)N[C@H](C(N)=O)C(C)C)[C@@H](C)CC)[C@@H](C)O)[C@@H](C)CC)C(C)C)C(C)C) [SEQ ID NO: 71]
